5 molecules from paper PMC2132731 (The Journal of Cell Biology, 1998) can be followed below.

Several values for one entry are separate records, joined by “and”; a condition that tells them apart may be missing. Equal values may be shown once.

Test [1] deals with GST-yAP180A C5 (S. cerevisiae). Put plainly: pull-down.
A further test concerns the target T1, Pan1p EH1–2 (96–713) (S. cerevisiae, UniProt P32521 96-713).
T1 sequence (looked up): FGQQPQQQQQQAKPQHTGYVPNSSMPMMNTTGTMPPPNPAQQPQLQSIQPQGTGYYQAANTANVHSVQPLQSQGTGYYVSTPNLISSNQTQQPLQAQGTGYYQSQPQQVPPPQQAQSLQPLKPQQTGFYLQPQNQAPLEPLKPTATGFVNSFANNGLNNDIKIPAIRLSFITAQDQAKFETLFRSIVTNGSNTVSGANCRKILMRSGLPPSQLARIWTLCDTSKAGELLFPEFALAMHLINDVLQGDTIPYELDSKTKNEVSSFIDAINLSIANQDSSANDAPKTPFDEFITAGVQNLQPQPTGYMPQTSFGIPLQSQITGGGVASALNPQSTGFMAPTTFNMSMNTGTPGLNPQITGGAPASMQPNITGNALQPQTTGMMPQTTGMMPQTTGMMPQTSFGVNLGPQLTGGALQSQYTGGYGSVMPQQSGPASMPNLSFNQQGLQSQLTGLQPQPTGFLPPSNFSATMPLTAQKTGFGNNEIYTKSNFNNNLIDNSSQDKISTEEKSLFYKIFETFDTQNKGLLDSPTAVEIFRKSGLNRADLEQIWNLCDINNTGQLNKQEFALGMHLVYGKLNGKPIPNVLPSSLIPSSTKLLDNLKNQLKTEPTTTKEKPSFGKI
The experiment in a line: two-hybrid.

A further test addresses T2, Pan1p EH1 (96–403) (S. cerevisiae, UniProt P32521 96-403).
T2 sequence (looked up): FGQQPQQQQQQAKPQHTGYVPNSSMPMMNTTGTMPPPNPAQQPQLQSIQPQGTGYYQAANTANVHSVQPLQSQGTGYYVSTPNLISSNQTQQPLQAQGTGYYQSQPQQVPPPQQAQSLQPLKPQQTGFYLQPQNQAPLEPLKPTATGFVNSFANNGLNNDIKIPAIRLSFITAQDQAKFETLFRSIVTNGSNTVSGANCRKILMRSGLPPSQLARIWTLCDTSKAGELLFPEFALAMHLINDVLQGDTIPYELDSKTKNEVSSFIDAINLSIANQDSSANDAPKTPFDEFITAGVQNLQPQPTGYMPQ
The experiment in a line: two-hybrid.

The target of test [2] is T3, Pan1p EH2 (96–145/403–713) (S. cerevisiae, UniProt P32521 96-145; P32521 403-713).
T3 chain (looked up): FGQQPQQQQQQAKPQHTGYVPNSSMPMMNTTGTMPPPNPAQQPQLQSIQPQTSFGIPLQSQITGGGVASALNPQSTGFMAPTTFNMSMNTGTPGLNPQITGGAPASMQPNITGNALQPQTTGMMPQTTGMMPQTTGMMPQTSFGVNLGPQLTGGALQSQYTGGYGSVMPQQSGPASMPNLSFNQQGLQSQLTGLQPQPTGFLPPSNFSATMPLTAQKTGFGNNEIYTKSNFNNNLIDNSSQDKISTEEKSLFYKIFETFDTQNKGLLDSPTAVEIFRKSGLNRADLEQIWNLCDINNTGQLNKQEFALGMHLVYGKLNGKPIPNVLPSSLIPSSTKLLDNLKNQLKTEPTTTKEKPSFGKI
The experiment in a line: two-hybrid.

The target in a further test is T4, Pan1p EH2 (544–713) (S. cerevisiae, UniProt P32521 544-713).
T4 sequence (looked up): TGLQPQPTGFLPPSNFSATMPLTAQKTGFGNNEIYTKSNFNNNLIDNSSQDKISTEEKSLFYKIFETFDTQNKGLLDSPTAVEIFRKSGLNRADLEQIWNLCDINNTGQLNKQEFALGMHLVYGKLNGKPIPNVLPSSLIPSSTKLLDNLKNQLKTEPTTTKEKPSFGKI
Put plainly: two-hybrid.

The target in test [3] is T5, Pan1p (S. cerevisiae (endogenous in yeast cells)), P32521.
T5 chain: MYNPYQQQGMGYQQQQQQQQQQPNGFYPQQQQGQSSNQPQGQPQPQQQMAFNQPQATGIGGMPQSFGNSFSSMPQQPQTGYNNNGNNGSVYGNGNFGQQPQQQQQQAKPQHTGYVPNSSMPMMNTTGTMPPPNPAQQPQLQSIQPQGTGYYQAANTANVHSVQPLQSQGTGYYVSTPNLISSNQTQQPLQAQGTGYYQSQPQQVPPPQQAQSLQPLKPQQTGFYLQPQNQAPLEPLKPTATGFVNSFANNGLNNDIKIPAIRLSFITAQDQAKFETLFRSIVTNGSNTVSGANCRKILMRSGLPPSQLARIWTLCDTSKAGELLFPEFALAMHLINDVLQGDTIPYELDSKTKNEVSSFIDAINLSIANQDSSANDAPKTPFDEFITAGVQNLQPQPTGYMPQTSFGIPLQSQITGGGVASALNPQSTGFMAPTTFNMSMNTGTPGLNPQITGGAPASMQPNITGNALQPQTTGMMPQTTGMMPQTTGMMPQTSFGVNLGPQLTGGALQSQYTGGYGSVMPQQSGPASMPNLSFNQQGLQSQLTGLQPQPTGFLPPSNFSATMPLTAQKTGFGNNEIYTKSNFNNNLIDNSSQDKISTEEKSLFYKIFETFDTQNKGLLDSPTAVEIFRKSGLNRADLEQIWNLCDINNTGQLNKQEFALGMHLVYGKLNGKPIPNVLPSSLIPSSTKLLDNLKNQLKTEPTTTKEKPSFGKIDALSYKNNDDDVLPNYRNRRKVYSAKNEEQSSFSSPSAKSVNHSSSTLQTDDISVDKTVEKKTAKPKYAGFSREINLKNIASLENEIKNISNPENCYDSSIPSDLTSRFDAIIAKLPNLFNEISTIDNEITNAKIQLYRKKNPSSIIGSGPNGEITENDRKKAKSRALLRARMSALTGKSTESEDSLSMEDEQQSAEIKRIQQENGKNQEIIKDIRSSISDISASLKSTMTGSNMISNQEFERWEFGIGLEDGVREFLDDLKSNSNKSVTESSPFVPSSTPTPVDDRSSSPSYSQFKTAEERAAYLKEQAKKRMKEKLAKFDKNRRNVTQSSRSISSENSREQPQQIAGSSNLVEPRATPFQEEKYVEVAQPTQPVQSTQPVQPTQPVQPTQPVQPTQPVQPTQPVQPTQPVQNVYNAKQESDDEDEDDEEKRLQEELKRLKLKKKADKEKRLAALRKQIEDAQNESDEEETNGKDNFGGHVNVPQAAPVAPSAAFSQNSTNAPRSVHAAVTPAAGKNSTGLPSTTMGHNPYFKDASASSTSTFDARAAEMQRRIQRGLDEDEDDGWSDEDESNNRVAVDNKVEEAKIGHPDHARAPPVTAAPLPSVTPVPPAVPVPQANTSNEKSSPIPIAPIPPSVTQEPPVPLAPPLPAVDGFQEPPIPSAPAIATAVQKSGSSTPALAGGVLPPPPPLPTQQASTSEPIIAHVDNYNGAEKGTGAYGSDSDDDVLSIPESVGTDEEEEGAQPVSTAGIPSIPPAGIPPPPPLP
The experiment in a line: co-IP. The settings on record: remark: other sources report otherwise.

On to “yeast clathrin (from UniProt P22137 1-1653; P17891 1-233) (complex)”, for which the percent of Chc1p depleted from the unbound fraction in test [1] is 50%.

B1: yAP180A 24–637 (domain or fragment, S. cerevisiae, UniProt P38856 24-637, looked up)
chain: LDPILLGTSNEEDFYEIVKGLDSRINDTAWTIVYKSLLVVHLMIREGSKDVALRYYSRNLEFFDIENIRGSNGSASGDMRALDRYDNYLKVRCREFGKIKKDYVRDGYRTLKLNSGNYGSSRNKQHSINIALDHVESLEVQIQALIKNKYTQYDLSNELIIFGFKLLIQDLLALYNALNEGIITLLESFFELSHHNAERTLDLYKTFVDLTEHVVRYLKSGKTAGLKIPVIKHITTKLVRSLEEHLIEDDKTHNTFVPVDSSQGSAGAVVAKSTAQERLEQIREQKRILEAQLKNEQVAISPALTTVTAAQSYNPFGTDSSMHTNIPMAVANQTQQIANNPFVSQTQPQVMNTPTAHTEPANLNVPEYAAVQHTVNFNPVQDAGVSAQQTGYYSINNHLTPTFTGAGFGGYSVSQDTTAASNQQVSHSQTGSNNPFALHNAATIATGNPAHENVLNNPFSRPNFDEQNTNMPLQQQIISNPFQNQTYNQQQFQQQKMPLSSINSVMTTPTSMQGSMNIPQRFDKMEFQAHYTQNHLQQQQQQQQQQQQQQQQQPQQGYYVPATAGANPVTNITGTVQPQNFPFYPQQQPQPEQSQTQQPVLGNQYANNLNLIDM
For B1, the “units β-galactosidase activity” value with Pan1p EH1–2 (96–713) was 78 ± 2 Units β-galactosidase activity; with Pan1p EH1 (96–403) it was 18 ± 7 Units β-galactosidase activity; in test [2], 23 ± 4 Units β-galactosidase activity; with Pan1p EH2 (544–713), 2 ± 0.4 Units β-galactosidase activity.

B2: yAP180A 432–637 (domain or fragment, S. cerevisiae, UniProt P38856 432-637, looked up)
chain: GGYSVSQDTTAASNQQVSHSQTGSNNPFALHNAATIATGNPAHENVLNNPFSRPNFDEQNTNMPLQQQIISNPFQNQTYNQQQFQQQKMPLSSINSVMTTPTSMQGSMNIPQRFDKMEFQAHYTQNHLQQQQQQQQQQQQQQQQQPQQGYYVPATAGANPVTNITGTVQPQNFPFYPQQQPQPEQSQTQQPVLGNQYANNLNLIDM
B2: the “units β-galactosidase activity” value with Pan1p EH1–2 (96–713) was 117 ± 75 Units β-galactosidase activity; with Pan1p EH1 (96–403), 6 ± 1 Units β-galactosidase activity; in test [2], 33 ± 4 Units β-galactosidase activity; with Pan1p EH2 (544–713), 4 ± 1 Units β-galactosidase activity.

B3: yAP180B 429–568 (domain or fragment, S. cerevisiae, UniProt P53309 429-568, looked up)
chain: GGYTTTENNAIMTGTLDPTKTGSNNPFSLENIAREQQQQNFQNSPNPFTLQQAQTTPILAHSQTGNPFQAQNVVTSPMGTYMTNPVAGQLQYASTGAQQQPQMMQGQQTGYVMVPTAFVPINQQQQQQQHQQENPNLIDI
As to B3, the “units β-galactosidase activity” value with Pan1p EH1–2 (96–713) was 362 ± 67 Units β-galactosidase activity; in the test with Pan1p EH1 (96–403) it was 70 ± 9 Units β-galactosidase activity; in test [2] it was 342 ± 15 Units β-galactosidase activity; with Pan1p EH2 (544–713), 158 ± 15 Units β-galactosidase activity.

B4: yAP180A, P38856 1-637 (natural protein)
chain: MTTYFKLVKGATKIKSAPPKQKYLDPILLGTSNEEDFYEIVKGLDSRINDTAWTIVYKSLLVVHLMIREGSKDVALRYYSRNLEFFDIENIRGSNGSASGDMRALDRYDNYLKVRCREFGKIKKDYVRDGYRTLKLNSGNYGSSRNKQHSINIALDHVESLEVQIQALIKNKYTQYDLSNELIIFGFKLLIQDLLALYNALNEGIITLLESFFELSHHNAERTLDLYKTFVDLTEHVVRYLKSGKTAGLKIPVIKHITTKLVRSLEEHLIEDDKTHNTFVPVDSSQGSAGAVVAKSTAQERLEQIREQKRILEAQLKNEQVAISPALTTVTAAQSYNPFGTDSSMHTNIPMAVANQTQQIANNPFVSQTQPQVMNTPTAHTEPANLNVPEYAAVQHTVNFNPVQDAGVSAQQTGYYSINNHLTPTFTGAGFGGYSVSQDTTAASNQQVSHSQTGSNNPFALHNAATIATGNPAHENVLNNPFSRPNFDEQNTNMPLQQQIISNPFQNQTYNQQQFQQQKMPLSSINSVMTTPTSMQGSMNIPQRFDKMEFQAHYTQNHLQQQQQQQQQQQQQQQQQPQQGYYVPATAGANPVTNITGTVQPQNFPFYPQQQPQPEQSQTQQPVLGNQYANNLNLIDM
Regarding B4, the percent of yAP180A coimmunoprecipitated in test [3] was 3% and 5%.
